Assay results published in US20040248198A1 (ST JUDE CHILDREN S RESEARCH HOSPITAL, published 2004).
Where no end group is shown, it is not given here.

B1: H1 peptide (Hdm2 240-254, SEQ ID NO:27, SVSDQFSVEFEVESL) (peptide)
peptide: Ac-SVSDQFSVEFEVESL-NH2
notes: Synthetic peptide
B2: 11-25 (peptide)
peptide: IQRAGRPLQERVFLV
modifications: not fully specified
notes: also called mouse p19Arf library peptide, residues 11-25
B3: 41-55 (peptide)
peptide: AFVNMLLRLERILRR
modifications: not fully specified
notes: also called mouse p19Arf library peptide, residues 41-55
B4: A1 peptide (human p14ARF 1-14, SEQ ID NO:26, MVRRFLVTLRIRRA) (peptide)
peptide: Ac-MVRRFLVTLRIRRA-NH2
notes: Synthetic peptide; also called human A1 (1-14)

How the values were obtained:
[1] = target: B4; experiment: CD titration, H1 peptide added stepwise to A1 peptide
Procedure: (§1) CD spectra were recorded with an Aviv 62DS instrument in 5 mM potassium phosphate (pH 7.0) using a 1 mm cuvette. In FIG. 1A, A1 was 4.5 μM, molar ratios were: 1:0.0, 1:0.1, 1:0.6, 1:0.9, & 1:1.3. In FIG. 1B, H1 was 2.5 μM, molar ratios were: 1:0.2, 1:0.7, 1:1.0, & 1:1.3. Data was collected for 3 seconds in 1 nm steps and 10 scans were averaged for each spectrum. The appearance of a minimum in the CD spectra of the assemblies near […] and the increase in ellipticity near 200 nm is consistent with the formation of β-strand-containing structures.
(§2) An end point was reached when the molar ratio of A1:H1 was 1:1. For example, further additions of the H1 peptide led to the appearance of disordered spectral features consistent with unbound, free H1 peptide (inset, FIG. 6a). The Fourier transform infrared (FT-IR) spectrum of the co-assemblies confirms the CD results and allows the β-structures to be classified as anti-parallel β-strands on the basis of the absorbances at 1618 cm-1 and 1679 cm-1 (FIG. 7) [Casal, H. L.; Kohler, U.; Mantsch, H. H., Biochim Biophys Acta 957:11-20 (1988)]. In summary, the individually disordered A1 and H1 peptides self-assemble into supramolecular structures comprised of anti-parallel β-strands.

His-tagged Hdm2 210-304 = target: T1, His-tagged Hdm2 210-304 (human, UniProt Q00987 210-304); experiment: SPR (Biacore), His-tagged Hdm2 210-304 captured by anti-His antibody, mouse Arf peptide as analyte, reference cell subtracted
T1 construct: not shown: thrombin-cleavable poly-His tag from pET28a
T1 sequence (Q00987 210-304): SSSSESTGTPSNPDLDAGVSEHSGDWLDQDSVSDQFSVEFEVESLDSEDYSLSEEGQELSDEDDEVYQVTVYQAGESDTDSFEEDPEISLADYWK
Procedure: Surface Plasmon Resonance. Binding studies were performed using a Biacore 3000 surface plasmon resonance (SPR) instrument (Biacore, Inc.). A Tetra-His™ Antibody (Qiagen, Inc.; Cat. #34670) was covalently attached to a carboxymethylated gold surface (C-1 chip; Biacore, Inc.). The carboxymethyl groups on the surface were activated with N-ethyl-N-(3-dimethylaminopropyl) carbodiimide (EDC) and N-hydroxysuccinimide (NHS) and the antibody was attached at pH 7.4 in 20 mM sodium phosphate buffer, 150 mM NaCl (PBS). Reactive sites remaining on the surface were blocked by reaction with ethanolamine. The His-tagged ligand was attached to the antibody by injecting a […] solution of the ligand in 10 mM HEPES, 150 mM NaCl, pH 7.4 (HBS-N buffer, Biacore) at a flow rate of 10 μL/Min through the flow cell. A reference cell was prepared similarly except that no His-tagged ligand was added. Binding was measured by flowing the non-His-tagged analyte through the reference and ligand-containing flow cells in sequence. Prior to injection of ligands, the chip surfaces were equilibrated in HBS-N buffer. Changes in the SPR response due to solvent differences and the injection process were monitored by injection of HBS-N buffer alone. Regeneration of the chip surface to remove bound analyte and ligand was accomplished by two 100 μL injections of 10 mM glycine, pH 2.0 through both flow cells. Data reported is-the difference in SPR signal between the flow cell containing analyte and the reference cell. Duplicate injections were made and the SPR response values reported are the average of these two injections.
Two libraries of peptides 15 amino acids in length were synthesized based on the sequence of exon 1β of mouse p19^Arf and the entire sequence of human p14^Arf. The sequence for the first peptide in each library corresponded to the first 15 amino acids of the protein sequences. […] This approach yielded two libraries of overlapping peptides spanning mouse p19^Arf residues 1-64 and human p14^Arf residues 1-132. The ability of these peptides to bind Hdm2 fragments was determined using the surface plasmon resonance (SPR) technique with a Biacore 3000 instrument.

[2] = target: B1; experiment: CD and 1H NMR titration
Procedure: as §1, §2

**Q.** Does B1 bind [1]?
**A.** binds

**Q.** Does B2 bind (His-tagged Hdm2 210-304)?
**A.** no binding (tested: not given)

**Q.** Does B3 bind (His-tagged Hdm2 210-304)?
**A.** no binding (tested: not given)

**Q.** With B4 as the binder, how does the “molar ratio A1:H1 at the end point of the titration” value [2] read?
**A.** 1 mol A1 per mol H1
